These results are taken from IntAct's records for PubMed 21382479.

First the molecules themselves.
B1: Caveolin-1 (Homo sapiens), Q03135 (parent)
chain: MSGGKYVDSEGHLYTVPIREQGNIYKPNNKAMADELSEKQVYDAHTKEIDLVNRDPKHLNDDVVKIDFEDVIAEPEGTHSFDGIWKASFTTFTVTKYWFYRLLSALFGIPMALIWGIYFAILSFLHIWAVVPCIKSFLIEIQCISRVYSIYVHTVCDPLFEAVGKIFSNVRINLQKEI
partner: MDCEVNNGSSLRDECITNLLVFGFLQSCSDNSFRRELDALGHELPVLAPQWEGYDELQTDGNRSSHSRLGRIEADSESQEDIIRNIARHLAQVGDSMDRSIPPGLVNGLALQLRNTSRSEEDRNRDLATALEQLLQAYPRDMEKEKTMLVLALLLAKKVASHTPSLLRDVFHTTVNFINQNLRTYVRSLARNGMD

Variants of B1 are the subject of the assay. Particulars: with bid_human BID.
As to Y14F, the “effect of a mutation on the interaction” value is given as “disrupting interaction”.
